Data on 10 molecules can be found in patent US20190241669A1 (published 2019).

The target of one assay is T1, cynomolgus monkey BCMA (cynomolgus monkey, UniProt A0A2K5UD97 1-53).
T1 construct: Soluble analyte in SPR; construct not described; also called cyBCMA; Cyno BCMA
The assay is described as follows: SPR, IgG on chip, cyBCMA analyte, 37C. In general terms: Surface plasmon resonance follows binding to a sensor surface in real time, without labels.

The next assay addresses Human BCMA (human) (UniProt Q02223). The assay is described as follows: SPR, IgG immobilised, huBCMA analyte, 37 C.

T1 sequence (A0A2K5UD97 entry or part of it): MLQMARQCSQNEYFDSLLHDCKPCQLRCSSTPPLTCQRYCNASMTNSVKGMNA

B1: L3.PY/L1.PH/H2.HA (antibody, V domains shown)
VH: EVQLLESGGGLVQPGGSLRLSCAASGFTFGSYAMTWVRQAPGKGLEWVSAISHAGGNTFYADSVKGRFTISRDNSKNTLYLQMNSLRAEDTAVYYCARVSPIASGMDYWGQGTLVTVSS
VL: EIVLTQSPGTLSLSPGERATLSCRASQSVSPHYLAWYQQKPGQAPRLLIYGASSRATGIPDRFSGSGSGTDFTLTISRLEPEDFAVYYCQHYPYPPSFTFGQGTKVEIK
notes: IgG
One may read the Kd as a measure of binding affinity in units of concentration. The koff is the rate constant with which the complex falls apart. What is called kon is the rate constant with which the complex forms. On to B1, for which, in the assay with cynomolgus monkey BCMA, the affinity, expressed as Kd, was 3440 pM; the “T½” value is 2.09 min; the koff was determined as 0.00553 s⁻¹; the kon stood at 1.61e+06 M⁻¹ s⁻¹. In the assay with Human BCMA (human), the Kd turned out to be 490 pM, the T½ came out at 9.99 min, the koff worked out at 0.00116 s⁻¹ and the kon was 2.37e+06 M⁻¹ s⁻¹.

B2: L3.PY/L1.PH/H2.QR (antibody, V domains shown)
VH: EVQLLESGGGLVQPGGSLRLSCAASGFTFGSYAMTWVRQAPGKGLEWVSAISGSGGNTFYADQRKGRFTISRDNSKNTLYLQMNSLRAEDTAVYYCARVSPIASGMDYWGQGTLVTVSS
VL: EIVLTQSPGTLSLSPGERATLSCRASQSVSPHYLAWYQQKPGQAPRLLIYGASSRATGIPDRFSGSGSGTDFTLTISRLEPEDFAVYYCQHYPYPPSFTFGQGTKVEIK
notes: IgG
On to B2, for which, in the assay with cynomolgus monkey BCMA, the affinity, expressed as Kd, was 1800 pM; the “T½” value was found to be 2.65 min; the koff came to 0.00436 s⁻¹; the kon stood at 2.42e+06 M⁻¹ s⁻¹. In addition, in the assay with Human BCMA (human), the Kd was 640 pM, the T½ came out at 4.89 min, the koff worked out at 0.00236 s⁻¹ and the kon was 3.69e+06 M⁻¹ s⁻¹.

B3: L3.PY/L3.KF/H2.QL (antibody, V domains shown)
VH: EVQLLESGGGLVQPGGSLRLSCAASGFTFGSYAMTWVRQAPGKGLEWVSAISGSGGNTFYADQLKGRFTISRDNSKNTLYLQMNSLRAEDTAVYYCARVSPIASGMDYWGQGTLVTVSS
VL: EIVLTQSPGTLSLSPGERATLSCRASQSVSSSYLAWYQQKPGQAPRLLIYGASSRATGIPDRFSGSGSGTDFTLTISRLEPEDFAVYYCKFYPYPPSFTFGQGTKVEIK
notes: IgG
Turning to B3, in the assay with cynomolgus monkey BCMA, the Kd amounted to 2180 pM, the “T½” value was 3.73 min, the koff was 0.0031 s⁻¹ and the kon stood at 1.42e+06 M⁻¹ s⁻¹. In the assay with Human BCMA (human), this molecule came in with a Kd of 600 pM, a T½ of 9.26 min, a koff of 0.00125 s⁻¹ and a kon of 2.07e+06 M⁻¹ s⁻¹.

B4: L3.PY/L3.KF/H3.AE (antibody, V domains shown)
VH: EVQLLESGGGLVQPGGSLRLSCAASGFTFGSYAMTWVRQAPGKGLEWVSAISGSGGNTFYADSVKGRFTISRDNSKNTLYLQMNSLRAEDTAVYYCARVSPIAAEMDYWGQGTLVTVSS
VL: EIVLTQSPGTLSLSPGERATLSCRASQSVSSSYLAWYQQKPGQAPRLLIYGASSRATGIPDRFSGSGSGTDFTLTISRLEPEDFAVYYCKFYPYPPSFTFGQGTKVEIK
notes: IgG
On to B4, for which, in the assay with cynomolgus monkey BCMA, binding was characterised by a dissociation constant (Kd) of 3050 pM, the “T½” value was 2.05 min, the koff was 0.00564 s⁻¹ and the kon was 1.85e+06 M⁻¹ s⁻¹. Further, in the assay with Human BCMA (human), the Kd was determined as 510 pM, the T½ was 7.44 min, the koff is 0.00155 s⁻¹ and the kon stood at 3.07e+06 M⁻¹ s⁻¹.

B5: L3.PY/L3.KF/H2.LT (antibody, V domains shown)
VH: EVQLLESGGGLVQPGGSLRLSCAASGFTFGSYAMTWVRQAPGKGLEWVSAISLTGGNTFYADSVKGRFTISRDNSKNTLYLQMNSLRAEDTAVYYCARVSPIASGMDYWGQGTLVTVSS
VL: EIVLTQSPGTLSLSPGERATLSCRASQSVSSSYLAWYQQKPGQAPRLLIYGASSRATGIPDRFSGSGSGTDFTLTISRLEPEDFAVYYCKFYPYPPSFTFGQGTKVEIK
notes: IgG
Turning to B5, in the assay with cynomolgus monkey BCMA, the Kd turned out to be 2160 pM, the “T½” value was 2.8 min, the koff came to 0.00413 s⁻¹ and the kon is 1.91e+06 M⁻¹ s⁻¹. In addition, in the assay with Human BCMA (human), the Kd is 690 pM, the T½ came to 6.05 min, the koff was determined as 0.00191 s⁻¹ and the kon is 2.75e+06 M⁻¹ s⁻¹.

B6: L3.PY/L3.KF/H2.DY (antibody, V domains shown)
VH: EVQLLESGGGLVQPGGSLRLSCAASGFTFGSYAMTWVRQAPGKGLEWVSAIDYSGGNTFYADSVKGRFTISRDNSKNTLYLQMNSLRAEDTAVYYCARVSPIASGMDYWGQGTLVTVSS
VL: EIVLTQSPGTLSLSPGERATLSCRASQSVSSSYLAWYQQKPGQAPRLLIYGASSRATGIPDRFSGSGSGTDFTLTISRLEPEDFAVYYCKFYPYPPSFTFGQGTKVEIK
notes: IgG
Take B6: in the assay with cynomolgus monkey BCMA, the Kd was found to be 1770 pM, the “T½” value is 3.14 min, the koff is 0.00368 s⁻¹ and the kon is 2.08e+06 M⁻¹ s⁻¹. In addition, in the assay with Human BCMA (human), the Kd was 670 pM, the T½ was determined as 6.35 min, the koff stood at 0.00182 s⁻¹ and the kon worked out at 2.74e+06 M⁻¹ s⁻¹.

B7: L3.PY/L1.PH/H3.AQ (antibody, V domains shown)
VH: EVQLLESGGGLVQPGGSLRLSCAASGFTFGSYAMTWVRQAPGKGLEWVSAISGSGGNTFYADSVKGRFTISRDNSKNTLYLQMNSLRAEDTAVYYCARVSPIAAQMDYWGQGTLVTVSS
VL: EIVLTQSPGTLSLSPGERATLSCRASQSVSPHYLAWYQQKPGQAPRLLIYGASSRATGIPDRFSGSGSGTDFTLTISRLEPEDFAVYYCQHYPYPPSFTFGQGTKVEIK
notes: IgG
In the case of B7, in the assay with cynomolgus monkey BCMA, the Kd was determined as 1500 pM, the “T½” value turned out to be 3.39 min, the koff is 0.00341 s⁻¹ and the kon was 2.28e+06 M⁻¹ s⁻¹. In the assay with Human BCMA (human), the Kd was determined as 520 pM, the T½ turned out to be 7.27 min, the koff turned out to be 0.00159 s⁻¹ and the kon amounted to 3.08e+06 M⁻¹ s⁻¹.

B8: L3.PY/L1.PH/H3.TAQ (antibody, V domains shown)
VH: EVQLLESGGGLVQPGGSLRLSCAASGFTFGSYAMTWVRQAPGKGLEWVSAISGSGGNTFYADSVKGRFTISRDNSKNTLYLQMNSLRAEDTAVYYCTRVSPIAAQMDYWGQGTLVTVSS
VL: EIVLTQSPGTLSLSPGERATLSCRASQSVSPHYLAWYQQKPGQAPRLLIYGASSRATGIPDRFSGSGSGTDFTLTISRLEPEDFAVYYCQHYPYPPSFTFGQGTKVEIK
notes: IgG
For the molecule B8, in the assay with cynomolgus monkey BCMA, the Kd is 1280 pM, the “T½” value worked out at 3.61 min, the koff turned out to be 0.0032 s⁻¹ and the kon amounted to 2.51e+06 M⁻¹ s⁻¹. In the assay with Human BCMA (human), this molecule yielded a Kd of 590 pM, a T½ of 5.43 min, a koff of 0.00213 s⁻¹ and a kon of 3.58e+06 M⁻¹ s⁻¹.

B9: L3.PY/L3.KF/H2.YQ (antibody, V domains shown)
VH: EVQLLESGGGLVQPGGSLRLSCAASGFTFGSYAMTWVRQAPGKGLEWVSAISYQGGNTFYADSVKGRFTISRDNSKNTLYLQMNSLRAEDTAVYYCARVSPIASGMDYWGQGTLVTVSS
VL: EIVLTQSPGTLSLSPGERATLSCRASQSVSSSYLAWYQQKPGQAPRLLIYGASSRATGIPDRFSGSGSGTDFTLTISRLEPEDFAVYYCKFYPYPPSFTFGQGTKVEIK
notes: IgG
With B9, in the assay with cynomolgus monkey BCMA, the Kd was determined as 3550 pM, the “T½” value was 2.3 min, the koff came out at 0.00501 s⁻¹ and the kon is 1.41e+06 M⁻¹ s⁻¹. For the same molecule, in the assay with Human BCMA (human), the Kd came out at 1140 pM, the T½ came to 5.18 min, the koff was 0.00223 s⁻¹ and the kon was determined as 1.96e+06 M⁻¹ s⁻¹.

B10: L3.PY/L1.PH/H3.AE (antibody, V domains shown)
VH: EVQLLESGGGLVQPGGSLRLSCAASGFTFGSYAMTWVRQAPGKGLEWVSAISGSGGNTFYADSVKGRFTISRDNSKNTLYLQMNSLRAEDTAVYYCARVSPIAAEMDYWGQGTLVTVSS
VL: EIVLTQSPGTLSLSPGERATLSCRASQSVSPHYLAWYQQKPGQAPRLLIYGASSRATGIPDRFSGSGSGTDFTLTISRLEPEDFAVYYCQHYPYPPSFTFGQGTKVEIK
notes: IgG
Regarding B10, in the assay with cynomolgus monkey BCMA, binding was put at a Kd of 770 pM, the “T½” value stood at 5.72 min, the koff is 0.00202 s⁻¹ and the kon turned out to be 2.61e+06 M⁻¹ s⁻¹. In the assay with Human BCMA (human), the Kd was 360 pM, the T½ was 8.61 min, the koff was 0.00134 s⁻¹ and the kon was found to be 3.68e+06 M⁻¹ s⁻¹.
